This passage reports self-aminoacylation results from the supplement of paper PMC9233669.

Variants at the floor of the assay were thinned out.

One series deals with biotinyl-Val-oxazolone. The series is described as follows: self-aminoacylation, catalytic enhancement (BVO) (fold over background); higher = more active; k-Seq, kA / k0A0; sequences stand for … in GGGAAUGGAUCCACAUCUACGAAUUC…UUCACUGCAGACUUGACGAAGCUG
In a few lines:
(§1)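 Each biotinyl-aminoacyl-oxazolone, at 2–1250 μM, was incubated with mutagenized RNA pools (0.43 μM) carrying a 21-nt variable region. The 50 μL reactions contained HEPES/NaCl/KCl/MgCl2/CaCl2 buffer with 5% acetonitrile at pH 6.9–7.0 and ran for 90 minutes at room temperature. After streptavidin capture, RNA was measured by qPCR in triplicate and by Illumina sequencing, and catalytic enhancement was calculated as median kA over the uncatalyzed rate from a pseudo-first-order fit of per-sequence fraction reacted.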

For a further series, the system named is biotinyl-Trp-oxazolone. The experiment in a line: self-aminoacylation, catalytic enhancement (BWO) (fold over background); higher = more active; k-Seq, kA / k0A0; sequences stand for … in GGGAAUGGAUCCACAUCUACGAAUUC…UUCACUGCAGACUUGACGAAGCUG
Put shortly:
as §1

Another series relates to biotinyl-Phe-oxazolone. The series is described as follows: self-aminoacylation, catalytic enhancement (BFO) (fold over background); higher = more active; k-Seq, kA / k0A0; sequences stand for … in GGGAAUGGAUCCACAUCUACGAAUUC…UUCACUGCAGACUUGACGAAGCUG
In a few lines:
as §1

A further series relates to biotinyl-Ile-oxazolone. The experiment in a line: self-aminoacylation, catalytic enhancement (BIO) (fold over background); higher = more active; k-Seq, kA / k0A0; sequences stand for … in GGGAAUGGAUCCACAUCUACGAAUUC…UUCACUGCAGACUUGACGAAGCUG
In a few lines: as §1

In the next series the test system is biotinyl-Met-oxazolone. The experiment in a line: self-aminoacylation, catalytic enhancement (BMO) (fold over background); higher = more active; k-Seq, kA / k0A0; sequences stand for … in GGGAAUGGAUCCACAUCUACGAAUUC…UUCACUGCAGACUUGACGAAGCUG
Put shortly:
as §1

The next series concerns biotinyl-Leu-oxazolone. The series is described as follows: self-aminoacylation, catalytic enhancement (BLO) (fold over background); higher = more active; k-Seq, kA / k0A0; sequences stand for … in GGGAAUGGAUCCACAUCUACGAAUUC…UUCACUGCAGACUUGACGAAGCUG
Put shortly: as §1

As for “AUUACCCUGGGCAUCGAGUGC [Fam2.1 aminoacylation ribozyme variant]”, the self-aminoacylation with biotinyl-Val-oxazolone amounted to 0.979; in the series with biotinyl-Trp-oxazolone it was 1.31; with biotinyl-Phe-oxazolone, 0.527; in the series with biotinyl-Ile-oxazolone it was 1.1; in the series on biotinyl-Met-oxazolone, 1.24; with biotinyl-Leu-oxazolone it was 0.992.
As for “AUUACCCUGGUAAUCGAGUGC [Fam2.1 aminoacylation ribozyme variant]”, the self-aminoacylation is 0.801 with biotinyl-Val-oxazolone; 0.656 in the series with biotinyl-Trp-oxazolone; 1.38 in the series with biotinyl-Phe-oxazolone; 0.957 in the series with biotinyl-Ile-oxazolone; 1.12 with biotinyl-Met-oxazolone; 1.04 in the series with biotinyl-Leu-oxazolone.
As for “AUUACCCUGGUAAUCGCGUGA [Fam2.1 aminoacylation ribozyme variant]”, the self-aminoacylation was found to be 3.66 with biotinyl-Val-oxazolone; 7.81 in the series with biotinyl-Trp-oxazolone; 58.9 in the series with biotinyl-Phe-oxazolone; 3.14 with biotinyl-Ile-oxazolone; 7.29 with biotinyl-Met-oxazolone; 8.44 in the series with biotinyl-Leu-oxazolone.
Take “AUUACCCUGGUCAAUGAGUGA [Fam2.1 aminoacylation ribozyme variant]”: the self-aminoacylation stood at 3.7 in the series on biotinyl-Val-oxazolone; 8.83 with biotinyl-Trp-oxazolone; 30.9 with biotinyl-Phe-oxazolone; 3.46 in the series on biotinyl-Ile-oxazolone; 7.16 in the series with biotinyl-Met-oxazolone; 6.7 in the series on biotinyl-Leu-oxazolone.
As for “AUUACCCUGGUCACCGAGCGA [Fam2.1 aminoacylation ribozyme variant]”, the self-aminoacylation in the series with biotinyl-Val-oxazolone came out at 1.25; with biotinyl-Trp-oxazolone it was 0.843; in the series with biotinyl-Phe-oxazolone it was 0.94; in the series with biotinyl-Ile-oxazolone it was 1.16; with biotinyl-Met-oxazolone it was 2.08; with biotinyl-Leu-oxazolone, 1.54.
For the sequence “AUUACCCUGGUCACCGAGGGA [Fam2.1 aminoacylation ribozyme variant]”, the self-aminoacylation was determined as 2.39 with biotinyl-Val-oxazolone; 3.76 in the series with biotinyl-Trp-oxazolone; 0.887 in the series on biotinyl-Phe-oxazolone; 1.67 in the series with biotinyl-Ile-oxazolone; 2.27 in the series with biotinyl-Met-oxazolone; 1.83 with biotinyl-Leu-oxazolone.
“AUUACCCUGGUCAGCGAGGGA [Fam2.1 aminoacylation ribozyme variant]”: the self-aminoacylation with biotinyl-Val-oxazolone was determined as 1.19; with biotinyl-Trp-oxazolone, 2.06; in the series with biotinyl-Phe-oxazolone it was 0.743; with biotinyl-Ile-oxazolone, 1.54; in the series on biotinyl-Met-oxazolone, 1.34; in the series with biotinyl-Leu-oxazolone it was 0.891.
“AUUACCCUGGUCAGCUAGUGA [Fam2.1 aminoacylation ribozyme variant]”: the self-aminoacylation was found to be 2.34 in the series with biotinyl-Val-oxazolone; 3.12 in the series with biotinyl-Trp-oxazolone; 6.76 with biotinyl-Phe-oxazolone; 2.53 with biotinyl-Ile-oxazolone; 3.32 in the series on biotinyl-Met-oxazolone; 3.32 in the series on biotinyl-Leu-oxazolone.
For the sequence “AUUACCCUGGUCAUAAAGUGA [Fam2.1 aminoacylation ribozyme variant]”, the self-aminoacylation in the series on biotinyl-Val-oxazolone was determined as 5.16; in the series on biotinyl-Trp-oxazolone it was 13.4; in the series with biotinyl-Phe-oxazolone, 43.9; in the series with biotinyl-Ile-oxazolone, 4.88; with biotinyl-Met-oxazolone, 11.1; in the series on biotinyl-Leu-oxazolone it was 10.3.
Regarding “AUUACCCUGGUCAUAGAGUAA [Fam2.1 aminoacylation ribozyme variant]”, the self-aminoacylation with biotinyl-Val-oxazolone turned out to be 1.29; with biotinyl-Trp-oxazolone, 0.757; with biotinyl-Phe-oxazolone it was 0.983; in the series with biotinyl-Ile-oxazolone, 1.44; in the series on biotinyl-Met-oxazolone, 1.17; in the series on biotinyl-Leu-oxazolone it was 1.37.
As for “AUUACCCUGGUCAUAGAGUGU [Fam2.1 aminoacylation ribozyme variant]”, the self-aminoacylation in the series on biotinyl-Val-oxazolone is 2.58; in the series with biotinyl-Trp-oxazolone, 4.8; with biotinyl-Phe-oxazolone, 13.5; in the series with biotinyl-Ile-oxazolone, 2.08; with biotinyl-Met-oxazolone it was 4.07; in the series with biotinyl-Leu-oxazolone it was 3.73.
On to “AUUACCCUGGUCAUCAAUUGA [Fam2.1 aminoacylation ribozyme variant]”, for which the self-aminoacylation in the series with biotinyl-Val-oxazolone is 0.92; in the series on biotinyl-Trp-oxazolone, 0.826; in the series with biotinyl-Phe-oxazolone, 0.681; in the series on biotinyl-Ile-oxazolone it was 0.823; in the series with biotinyl-Met-oxazolone, 0.948; in the series on biotinyl-Leu-oxazolone it was 0.963.
In the case of “AUUACCCUGGUCAUCAGGUGA [Fam2.1 aminoacylation ribozyme variant]”, the self-aminoacylation was 3.03 in the series on biotinyl-Val-oxazolone; 5.53 with biotinyl-Trp-oxazolone; 29.8 with biotinyl-Phe-oxazolone; 2.6 in the series on biotinyl-Ile-oxazolone; 5.07 in the series on biotinyl-Met-oxazolone; 4.45 in the series with biotinyl-Leu-oxazolone.
Take “AUUACCCUGGUCAUCCAGCGA [Fam2.1 aminoacylation ribozyme variant]”: the self-aminoacylation in the series on biotinyl-Val-oxazolone amounted to 2.68; in the series with biotinyl-Trp-oxazolone, 3.97; with biotinyl-Phe-oxazolone, 10.1; in the series on biotinyl-Ile-oxazolone, 2.7; with biotinyl-Met-oxazolone, 3.38; with biotinyl-Leu-oxazolone it was 4.08.
“AUUACCCUGGUCAUCCAGUGU [Fam2.1 aminoacylation ribozyme variant]”: the self-aminoacylation in the series with biotinyl-Val-oxazolone was 1.81; in the series with biotinyl-Trp-oxazolone, 3.1; in the series with biotinyl-Phe-oxazolone it was 7.23; in the series on biotinyl-Ile-oxazolone it was 1.95; with biotinyl-Met-oxazolone, 3.14; in the series with biotinyl-Leu-oxazolone, 3.15.
Take “AUUACCCUGGUCAUCCGGUGA [Fam2.1 aminoacylation ribozyme variant]”: the self-aminoacylation in the series with biotinyl-Val-oxazolone was 6.25; in the series with biotinyl-Trp-oxazolone, 9.05; in the series with biotinyl-Phe-oxazolone it was 52.5; in the series on biotinyl-Ile-oxazolone, 6.78; with biotinyl-Met-oxazolone it was 8.7; in the series on biotinyl-Leu-oxazolone, 9.32.
On to “AUUACCCUGGUCAUCCUGUGA [Fam2.1 aminoacylation ribozyme variant]”, for which the self-aminoacylation is 1.07 in the series on biotinyl-Val-oxazolone; 1.52 with biotinyl-Trp-oxazolone; 2.81 in the series with biotinyl-Phe-oxazolone; 1.51 with biotinyl-Ile-oxazolone; 1.39 in the series with biotinyl-Met-oxazolone; 1.71 in the series on biotinyl-Leu-oxazolone.
Turning to “AUUACCCUGGUCAUCGACAGA [Fam2.1 aminoacylation ribozyme variant]”, the self-aminoacylation in the series on biotinyl-Val-oxazolone came to 0.774; in the series with biotinyl-Trp-oxazolone, 0.676; with biotinyl-Phe-oxazolone, 0.705; in the series with biotinyl-Ile-oxazolone it was 1.04; with biotinyl-Met-oxazolone it was 0.716; in the series on biotinyl-Leu-oxazolone it was 0.738.
Turning to “AUUACCCUGGUCAUCGACUUA [Fam2.1 aminoacylation ribozyme variant]”, the self-aminoacylation worked out at 0.818 in the series with biotinyl-Val-oxazolone; 0.414 in the series with biotinyl-Trp-oxazolone; 0.425 in the series on biotinyl-Phe-oxazolone; 0.596 in the series on biotinyl-Ile-oxazolone; 0.636 in the series with biotinyl-Met-oxazolone; 0.544 with biotinyl-Leu-oxazolone.
In the case of “AUUACCCUGGUCAUCGAGCGC [Fam2.1 aminoacylation ribozyme variant]”, the self-aminoacylation stood at 2.29 with biotinyl-Val-oxazolone; 1.16 in the series on biotinyl-Trp-oxazolone; 1.86 in the series on biotinyl-Phe-oxazolone; 2.09 with biotinyl-Ile-oxazolone; 2.53 in the series with biotinyl-Met-oxazolone; 2.33 in the series on biotinyl-Leu-oxazolone.
As to “AUUACCCUGGUCAUCGAGCGU [Fam2.1 aminoacylation ribozyme variant]”, the self-aminoacylation with biotinyl-Val-oxazolone is 2.36; in the series on biotinyl-Trp-oxazolone it was 4.83; in the series on biotinyl-Phe-oxazolone it was 4.33; in the series with biotinyl-Ile-oxazolone, 2.77; in the series on biotinyl-Met-oxazolone, 4.25; with biotinyl-Leu-oxazolone, 4.95.
For “AUUACCCUGGUCAUCGAGUGU [Fam2.1 aminoacylation ribozyme variant]”, the self-aminoacylation came to 37.4 in the series on biotinyl-Val-oxazolone; 104 with biotinyl-Trp-oxazolone; 785 in the series on biotinyl-Phe-oxazolone; 31.7 with biotinyl-Ile-oxazolone; 108 in the series on biotinyl-Met-oxazolone; 105 in the series with biotinyl-Leu-oxazolone.
For “AUUACCCUGGUCAUCGAUUAA [Fam2.1 aminoacylation ribozyme variant]”, the self-aminoacylation was 1.1 with biotinyl-Val-oxazolone; 0.619 in the series on biotinyl-Trp-oxazolone; 0.508 with biotinyl-Phe-oxazolone; 1.02 in the series on biotinyl-Ile-oxazolone; 0.935 with biotinyl-Met-oxazolone; 0.933 with biotinyl-Leu-oxazolone.
